Assay results published in PMC3634016 (PLoS ONE, 2013).

Biological target: T1, Wild type rat calmodulin (CaM) (rat, UniProt P0DP29 1-149)
T1 construct: calmodulin, rat, wild type; also called Ca^2+-CaM; calcium-calmodulin; source: expressed from pET9d (Novagen), purified (Phenyl Sepharose, gel filtration)
Test: ITC; peptide titrated into Ca^2+-CaM alone; 25°C; 25 mM Tris-Cl pH 7.5, 75 mM NaCl, 0.5 mM CaCl2; one-set-of-sites model
Details: both partners purified

B1: mammalian NSCaTE_(Cav1.2) peptide (peptide)
peptide: SWQAAIDAARQAKLMGS
notes: 17 mer with the N-terminal NSCaTE motif of the mammalian L-type calcium channel Cav1.2; also called Cav1.2 NSCaTE; source: synthetic peptide (CanPeptide Inc, >95% purity)
With B1 as the binder, how does the “stoichiometry N” value read?
The value was 2.
